Source: the RNAGym collection of RNA variant scans (doi:10.1021/acssynbio.7b00057)

B1: Pistol ribozyme (parent)
chain: GGGUCGUUGUUCCAUAAUCGCGUGGAUAUGGCACGCAAGUUUCUACCGGGCACCGUAAAUGUCCGACUGGAGCCGUUCGGGCGGCUAUAAACAGACCUCAGGCCCGAAGCGUGGCGGCACCUGCCGCCGGUGGUAAAAAAGAUCGGAAGAGCACACGUCU

Variants of: B1
Assay: aptazyme ON/OFF ratio, guanine; higher = stronger switching; co-transcriptional cleavage with and without guanine

**Q.** Which “aptazyme ON/OFF ratio” value does the source give for U11G C12G C13U here?
**A.** 1.32

**Q.** With U11G C12G C13A as the variant, how does the “aptazyme ON/OFF ratio” value read?
**A.** 1.2

**Q.** With U11G C12G C13G as the variant, how does the “aptazyme ON/OFF ratio” value read?
**A.** 1.27

**Q.** Which “aptazyme ON/OFF ratio” value does the source give for C12A C13U here?
**A.** 1.9

**Q.** Which “aptazyme ON/OFF ratio” value does the source give for C12A C13G here?
**A.** 1.27

**Q.** Which “aptazyme ON/OFF ratio” value does the source give for C12A C13A here?
**A.** 1.34

**Q.** For U11C C12A C13A, which “aptazyme ON/OFF ratio” value is on record?
**A.** 1.53

**Q.** Which “aptazyme ON/OFF ratio” value does the source give for U11C C12A C13U here?
**A.** 1.31

**Q.** For U11C C12A C13G, which “aptazyme ON/OFF ratio” value is on record?
**A.** 1.43

**Q.** Which “aptazyme ON/OFF ratio” value does the source give for U11G here?
**A.** 1.22

**Q.** For U11C, which “aptazyme ON/OFF ratio” value is on record?
**A.** 1.53

**Q.** With U11A as the variant, how does the “aptazyme ON/OFF ratio” value read?
**A.** 1.84

**Q.** With U11C C12U C13U as the variant, how does the “aptazyme ON/OFF ratio” value read?
**A.** 1.52

**Q.** With U11C C12U C13G as the variant, how does the “aptazyme ON/OFF ratio” value read?
**A.** 1.43

**Q.** For U11C C12U C13A, which “aptazyme ON/OFF ratio” value is on record?
**A.** 1.4

**Q.** Which “aptazyme ON/OFF ratio” value does the source give for U10G U11G C13U here?
**A.** 1.16

**Q.** For U10G U11G C13G, which “aptazyme ON/OFF ratio” value is on record?
**A.** 1.21

**Q.** Which “aptazyme ON/OFF ratio” value does the source give for U10G U11G C13A here?
**A.** 1.26

**Q.** For U11G C12A C13U, which “aptazyme ON/OFF ratio” value is on record?
**A.** 1.24

**Q.** Which “aptazyme ON/OFF ratio” value does the source give for U11G C12A C13A here?
**A.** 1.14

**Q.** For U11G C12A C13G, which “aptazyme ON/OFF ratio” value is on record?
**A.** 1.22

**Q.** Which “aptazyme ON/OFF ratio” value does the source give for U11C C13A here?
**A.** 1.2

**Q.** For U11C C13U, which “aptazyme ON/OFF ratio” value is on record?
**A.** 1.24

**Q.** With U11C C13G as the variant, how does the “aptazyme ON/OFF ratio” value read?
**A.** 1.07

**Q.** Which “aptazyme ON/OFF ratio” value does the source give for U11C C12G C13G here?
**A.** 1.49

**Q.** For U11C C12G C13U, which “aptazyme ON/OFF ratio” value is on record?
**A.** 1.33

**Q.** Which “aptazyme ON/OFF ratio” value does the source give for U11C C12G C13A here?
**A.** 1.46

**Q.** Which “aptazyme ON/OFF ratio” value does the source give for U11G C13A here?
**A.** 1.05

**Q.** With U11G C13G as the variant, how does the “aptazyme ON/OFF ratio” value read?
**A.** 1.03

**Q.** For U11G C13U, which “aptazyme ON/OFF ratio” value is on record?
**A.** 1.06

**Q.** For U11A C12A C13G, which “aptazyme ON/OFF ratio” value is on record?
**A.** 1.53

**Q.** For U11A C12A C13U, which “aptazyme ON/OFF ratio” value is on record?
**A.** 1.47

**Q.** With U11A C12A C13A as the variant, how does the “aptazyme ON/OFF ratio” value read?
**A.** 1.59

**Q.** Which “aptazyme ON/OFF ratio” value does the source give for U10G U11G C12G C13U here?
**A.** 1.26

**Q.** For U10G U11G C12G C13G, which “aptazyme ON/OFF ratio” value is on record?
**A.** 1.18

**Q.** With U11C C12G as the variant, how does the “aptazyme ON/OFF ratio” value read?
**A.** 1.55

**Q.** For U11C C12A, which “aptazyme ON/OFF ratio” value is on record?
**A.** 1.43

**Q.** Which “aptazyme ON/OFF ratio” value does the source give for U11C C12U here?
**A.** 1.57

**Q.** With U11G C12A as the variant, how does the “aptazyme ON/OFF ratio” value read?
**A.** 1.11

**Q.** With U11G C12U as the variant, how does the “aptazyme ON/OFF ratio” value read?
**A.** 1.29

**Q.** For U11G C12G, which “aptazyme ON/OFF ratio” value is on record?
**A.** 1.34

**Q.** Which “aptazyme ON/OFF ratio” value does the source give for U10G U11G C12U C13A here?
**A.** 1.32

**Q.** For U10G U11G C12U C13G, which “aptazyme ON/OFF ratio” value is on record?
**A.** 1.3

**Q.** For U10G U11G C12U C13U, which “aptazyme ON/OFF ratio” value is on record?
**A.** 1.26

**Q.** For C12G C13G, which “aptazyme ON/OFF ratio” value is on record?
**A.** 1.33

**Q.** Which “aptazyme ON/OFF ratio” value does the source give for C12G C13U here?
**A.** 1.36

**Q.** Which “aptazyme ON/OFF ratio” value does the source give for C12G C13A here?
**A.** 1.37

**Q.** With C12U C13G as the variant, how does the “aptazyme ON/OFF ratio” value read?
**A.** 1.29

**Q.** With C12U C13A as the variant, how does the “aptazyme ON/OFF ratio” value read?
**A.** 1.28

**Q.** Which “aptazyme ON/OFF ratio” value does the source give for C12U C13U here?
**A.** 1.26

**Q.** For U10G U11G C12U, which “aptazyme ON/OFF ratio” value is on record?
**A.** 1.38

**Q.** For C12G, which “aptazyme ON/OFF ratio” value is on record?
**A.** 1.45

**Q.** For C12A, which “aptazyme ON/OFF ratio” value is on record?
**A.** 1.76

**Q.** With C12U as the variant, how does the “aptazyme ON/OFF ratio” value read?
**A.** 1.91

**Q.** For U11A C12U C13U, which “aptazyme ON/OFF ratio” value is on record?
**A.** 1.45

**Q.** For U11A C12U C13G, which “aptazyme ON/OFF ratio” value is on record?
**A.** 1.37

**Q.** With U11A C12U C13A as the variant, how does the “aptazyme ON/OFF ratio” value read?
**A.** 1.36

**Q.** Which “aptazyme ON/OFF ratio” value does the source give for U11G C12U C13A here?
**A.** 1.1

**Q.** With U11G C12U C13G as the variant, how does the “aptazyme ON/OFF ratio” value read?
**A.** 1.04

**Q.** With U11G C12U C13U as the variant, how does the “aptazyme ON/OFF ratio” value read?
**A.** 1.11

**Q.** Which “aptazyme ON/OFF ratio” value does the source give for U11A C12G C13A here?
**A.** 1.11

**Q.** Which “aptazyme ON/OFF ratio” value does the source give for U11A C12G C13G here?
**A.** 1.18

**Q.** With U11A C12G C13U as the variant, how does the “aptazyme ON/OFF ratio” value read?
**A.** 1.42

**Q.** With C13A as the variant, how does the “aptazyme ON/OFF ratio” value read?
**A.** 1.36

**Q.** For C13U, which “aptazyme ON/OFF ratio” value is on record?
**A.** 1.38

**Q.** Which “aptazyme ON/OFF ratio” value does the source give for C13G here?
**A.** 1.13

**Q.** For U11A C12A, which “aptazyme ON/OFF ratio” value is on record?
**A.** 2.18

**Q.** With U11A C12U as the variant, how does the “aptazyme ON/OFF ratio” value read?
**A.** 1.64

**Q.** Which “aptazyme ON/OFF ratio” value does the source give for U11A C12G here?
**A.** 1.28

**Q.** For U11A C13G, which “aptazyme ON/OFF ratio” value is on record?
**A.** 1.12

**Q.** Which “aptazyme ON/OFF ratio” value does the source give for U11A C13A here?
**A.** 1.26

**Q.** With U11A C13U as the variant, how does the “aptazyme ON/OFF ratio” value read?
**A.** 1.29
